Measured values: PMC11043367

B1: human MYADM (myeloid-associated differentiation marker), HA-tagged, Q96S97 D276E; V277H; S278N (protein)
chain: MPVTVTRTTITTTTTSSSGLGSPMIVGSPRALTQPLGLLRLLQLVSTCVAFSLVASVGAWTGSMGNWSMFTWCFCFSVTLIILIVELCGLQARFPLSWRNFPITFACYAALFCLSASIIYPTTYVQFLSHGRSRDHAIAATFFSCIACVAYATEVAWTRARPGEITGYMATVPGLLKVLETFVACIIFAFISDPNLYQHQPALEWCVAVYAICFILAAIAILLNLGECTNVLPIPFPSFLSGLALLSVLLYATALVLWPLYQFDEKYGGQPRRSREHNCSRSHAYYVCAWDRRLAVAILTAINLLAYVADLVHSAHLVFVKV

Experiments:
[1] = target: human parechovirus 1 (PeV-A1) particles, Harris strain; test: co-immunoprecipitation with anti-HA beads, RT-qPCR of viral RNA; conditions: IP, read off a plot
[2] = target: T1, Flag-tagged PeV-A1 virus particles; test: pH-dependent virus particle binding assay (anti-HA immunoprecipitation), RT-qPCR of viral RNA; conditions: chain shown with the change, read off a plot
T1 chain 1: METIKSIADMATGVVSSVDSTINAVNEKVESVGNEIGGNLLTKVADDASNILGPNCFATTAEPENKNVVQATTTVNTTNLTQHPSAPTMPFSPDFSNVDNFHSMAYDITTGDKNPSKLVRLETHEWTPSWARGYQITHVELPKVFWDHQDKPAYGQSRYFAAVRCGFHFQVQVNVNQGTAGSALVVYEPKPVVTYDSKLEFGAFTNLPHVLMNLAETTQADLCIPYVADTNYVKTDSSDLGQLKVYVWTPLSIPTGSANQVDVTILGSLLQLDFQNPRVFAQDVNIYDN
T1 chain 2: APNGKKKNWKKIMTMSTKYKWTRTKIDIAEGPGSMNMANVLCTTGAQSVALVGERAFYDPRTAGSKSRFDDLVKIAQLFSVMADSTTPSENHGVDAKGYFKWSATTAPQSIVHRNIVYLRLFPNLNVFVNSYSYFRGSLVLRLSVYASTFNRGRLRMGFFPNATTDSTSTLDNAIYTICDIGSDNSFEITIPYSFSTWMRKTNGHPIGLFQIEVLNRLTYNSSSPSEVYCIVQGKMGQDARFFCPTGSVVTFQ
T1 chain 3: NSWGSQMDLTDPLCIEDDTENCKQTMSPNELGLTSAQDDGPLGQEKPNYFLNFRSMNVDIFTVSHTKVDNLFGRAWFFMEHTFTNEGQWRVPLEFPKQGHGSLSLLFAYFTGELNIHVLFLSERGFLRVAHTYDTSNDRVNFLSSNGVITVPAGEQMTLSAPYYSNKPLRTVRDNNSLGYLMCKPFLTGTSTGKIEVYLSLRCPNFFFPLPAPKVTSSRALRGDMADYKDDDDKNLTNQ

Molecule | response (relative to Vero) ([1]; 0 min after infection, parent: est. 25) | response (relative to Vero) ([1]; 15 min after infection, 37 °C, parent: est. 52) | response (relative to Vero) ([1]; 30 min after infection, 37 °C, parent: est. 60) | response (relative to Vero) ([2]; virus particle IP buffer pH 5.5, parent: est. 3.0) | response (relative to Vero) ([2]; virus particle IP buffer pH 6.0, parent: est. 6.2) | response (relative to Vero) ([2]; virus particle IP buffer pH 6.5, parent: est. 5.3) | response (relative to Vero) ([2]; virus particle IP buffer pH 7.4, parent: est. 1.1)
human MYADM (myeloid-associated differentiation marker), HA-tagged (from UniProt Q96S97) D276E; V277H; S278N | 5 | 1.5 | 5 | – | – | – | –
B1 | – | – | – | 1 | 1 | 1 | 1.1
